Results: PMC12853182, “Dynamic acetylation of a conserved lysine impacts glycerol kinase activity and abundance in the haloarchaeon Haloferax volcanii” (The Journal of Biological Chemistry, 2025)

Target: the molecule itself
Assay: SEC; Superdex 200 HR 10/300 GL, 50 mM HEPES pH 7.5, 2 M NaCl, 1 mM DTT, without glycerol; His-HvGK from cells grown in ATCC, GluMM or FruMM; mass by standard curve

B1: N-terminally His-tagged Haloferax volcanii glycerol kinase (His-HvGK), wildtype, purified from H. volcanii (enzyme, UniProt D4GYI5 1-510, looked up)
chain: MSGETYVGAIDQGTTGTRFMVFDHDGKVVANAYEKHEQIYPEPGWVEHDANEIWDNTKQVIDAALSSAGLDAEQLEAIGITNQRETTLVWDRETGQPIHNAIVWQDRRTTDRIETLEAEGKTDDVRAKTGLEPDAYFSATKAEWLLDNSDPIKLQRSRPEDIRDRAADGELAFGTIDTWLIYNLTGNHITDVTNASRTMLFNIHDMEWDDELLDEFNVPRELLPEVRPSSDDDYYGTTDADGFLGAEVPVAGALGDQQAALFGQTCFDAGDAKNTYGTGSFMLMNTGDEAVMSEHGLLTTVGFQRSGEPVQYALEGSIFITGAAIEWLEDMTLIDNAAESEKLARSVESTDGVYFVPAFTGLGAPHWDQRARGTIVGMTRGTRREHIVRATLESIAFQTRDVAEAMESDSEIDLSSLRVDGGAVKNNFLCQLQSNILDTEIVRPQVDETTALGAAYAAGLAVGYWETLDELRENWQVDREFAPKDPQNVEHRYGRWKEAVDRSLDWAREE
modifications: acetyl-lysine at K153, partial occupancy by AQUA-MS (50% in FruMM, 33% in ATCC rich medium, 17% in GluMM)
notes: Glycerol kinase (GlpK) of Haloferax volcanii, UniProt D4GYI5, gene hvo_1541; theoretical molecular weight 56.7 kDa monomer; The glpK gene was amplified and cloned into a pJAM503 backbone modified for an N-terminal His-tag fusion (pJAM4351); also called His-HvGK wt; HvGKHv; source: H. volcanii, expressed from a plasmid, cells grown in ATCC 974 rich medium, GluMM or FruMM; purified (Ni-NTA); not …
stoichiometry N: 2
